Measurements from paper PMC2111714.

Target: Cross-linked succinyl Con A (resuccinylated) (Canavalia ensiformis (jack bean))
Test: radioligand binding

“Dolichos biflorus lectin (natural protein)” was tested, and the glycoprotein specifically bound was 96 ng/plate.
